The values that follow are results of earlier work, collected in paper PMC4976022.

This data set addresses HPr (Escherichia coli) (UniProt P0AA04).

The Kd is the free concentration of one partner at which half of the binding sites on the other are occupied at equilibrium, for simple one-to-one binding. As to “EIN N-terminal domain (from UniProt P08839)”, the Kd is 7 µM.
